This passage reports protein stability index results from the supplement of paper PMC10567573.

± gives the standard deviation.

A short description of the data set: protein stability index of a GFP-peptide fusion (GPS, HEK-293T) (PSI 1-6); higher = more stable. To be noted: c terminus: a fixed tail appended.
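Also: 24-mer peptide tiles fused after GFP, lentivirally expressed, FACS-sorted into six equal bins by GFP/DsRed ratio, decoded by Illumina sequencing, PSI is the read-weighted mean bin number.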

Consider GGLSPVTNLTVTMDQLQGLGSDYE [CDC25A], for which the protein stability index amounted to 4.24 ± 0.38 (treatment: DMSO) and 4.48 ± 0.18 (treatment: MLN4924 1 uM, 8 h).
With GQGPKPEADSQEQGHPQTGCECED [GAGE1], the protein stability index amounted to 5.64 ± 0.15 (treatment: DMSO) and 5.4 ± 0.31 (treatment: MLN4924 1 uM, 8 h).
Taken in the same sequence, the figures for TLLGNPKKRMRYFDPLRNEYFFDR [KCNA1] were 2.27 ± 0.29 and 2.3 ± 0.057.
Taken in the same sequence, the figures for FKAEVDPLSDKGTTPLQLAIIRER [ASB7] were 3.82 ± 0.34 and 3.85 ± 0.25.
Taken in the same sequence, the figures for SHKERFDPSGKGKGKAGRVDLVDE [TPPP] were 5.04 ± 0.46 and 5.24 ± 0.2.
For the sequence SLPPPAGLNSSWVELPMNSSNGND [BNIP3L], the protein stability index by setting is: (treatment: DMSO) 4.94 ± 0.26; (treatment: MLN4924 1 uM, 8 h) 4.88 ± 0.29.
With VYTETVHVTVENVQELLPAACLLQ [KLHL12], the protein stability index amounted to 2.12 ± 0.52 (treatment: DMSO) and 1.91 ± 0.26 (treatment: MLN4924 1 uM, 8 h).
Taken in the same sequence, the figures for EGYEFCHNRKVLTIFSASNYYEVG [PPEF2] were 2.31 ± 0.44 and 2.05 ± 0.44.
The corresponding values for DKDKSPESHKAKNESWIKSHFSRL [C10orf62] are 3.46 ± 0.25 and 3.48 ± 0.31.
The corresponding values for CQALPYGPGYWMCCHRSQKGFPGC [FBXO34] are 2.35 ± 0.44 and 2.23 ± 0.32.
As for KNHSTVTVEEAKAEKETELSLQKE [TRIM29], the protein stability index reads like this: (treatment: DMSO) 5.57 ± 0.24; (treatment: MLN4924 1 uM, 8 h) 5.58 ± 0.23.
For the sequence PIGCDGVLFSTHTLDKCGICQGDG [ADAMTSL2], the protein stability index runs as follows: (treatment: DMSO) 3.62 ± 0.26; (treatment: MLN4924 1 uM, 8 h) 3.79 ± 0.47.
Take GRSFREEQCVSFNSHVYNGRTHQW [ADAMTSL2]: the protein stability index turned out to be 3.05 ± 0.56 (treatment: DMSO) and 3.15 ± 0.87 (treatment: MLN4924 1 uM, 8 h).
LPWLSLRALKFRERDALEAVFRFW [DNAAF3]: the protein stability index (treatment: DMSO) stood at 2.46 ± 0.24 and the protein stability index (treatment: MLN4924 1 uM, 8 h) was 2.49 ± 0.28.
For QPPPAPPKKIMPEAHSHYLYGHML [PPFIA4], the protein stability index is, setting by setting: (treatment: DMSO) 2.76 ± 0.26; (treatment: MLN4924 1 uM, 8 h) 2.91 ± 0.22.
Taken in the same sequence, the figures for DLPEVESLPRDRVLGFLIENFKGL [VPS39] were 3.27 ± 0.59 and 3.19 ± 0.34.
As to LQNNCTSSITRQKKRLQELALALK [TMEM120A], the protein stability index reads like this: (treatment: DMSO) 2.79 ± 0.15; (treatment: MLN4924 1 uM, 8 h) 2.83 ± 0.4.
Taken in the same sequence, the figures for FDSDWYTSRNLIGGADIIVIKYNV [RHOBTB3] were 2.73 ± 0.52 and 3.12 ± 0.4.
The corresponding values for GDELYEQSDEEQDSVKVALLETNP [CLPTM1] are 5.37 ± 0.19 and 5.44 ± 0.17.
SVVRRCVKVLAGQEYAAKIINTKK [CAMK2A] returned a protein stability index (treatment: DMSO) of 2.72 ± 0.35 and a protein stability index (treatment: MLN4924 1 uM, 8 h) of 2.52 ± 0.5.
MVRKIGCYAAMKKKIYAMGGGSYG [GAN] came in with a protein stability index (treatment: DMSO) of 2.28 ± 0.17 and a protein stability index (treatment: MLN4924 1 uM, 8 h) of 2.45 ± 0.38.
Taken in the same sequence, the figures for EGKTKKGVLEAPDTQVNPVGSVSV [FBXO34] were 5.08 ± 0.17 and 5.14 ± 0.11.
Take CHLTPSIYTEFPDETLRSGELLNM [INTS3]: the protein stability index was 3.04 ± 0.17 (treatment: DMSO) and 2.99 ± 0.24 (treatment: MLN4924 1 uM, 8 h).
The sequence KNRPAMNYDKLSRSIRQYYKKGII [SPDEF] came in with a protein stability index (treatment: DMSO) of 2.46 ± 0.3 and a protein stability index (treatment: MLN4924 1 uM, 8 h) of 2.42 ± 0.48.
For ALNQEFLATRSNEKQELQELNDRF [PRPH], the protein stability index is, setting by setting: (treatment: DMSO) 4.24 ± 0.19; (treatment: MLN4924 1 uM, 8 h) 4.38 ± 0.22.
The corresponding values for VESFKTKVSYLKQKGLGGAMVWAL [CHIT1] are 2.54 ± 0.49 and 2.7 ± 0.56.
Regarding GARDGIRYLEAEFKKGNRYIRCQK [SMG5], the protein stability index runs as follows: (treatment: DMSO) 3.14 ± 0.3; (treatment: MLN4924 1 uM, 8 h) 3.57 ± 0.32.
LGDCMRTLGYMPTEMELLEVSQHI [CABP4] had a protein stability index (treatment: DMSO) of 2.46 ± 0.31 and a protein stability index (treatment: MLN4924 1 uM, 8 h) of 2.57 ± 0.23.
Taken in the same sequence, the figures for SLLVTELGSSRTPETVRMVLSNME [IMPA1] were 3.15 ± 0.39 and 3.4 ± 0.23.
The corresponding values for ENVDEASAAPGHPQDGSYPRQADH [KCNA1] are 5.55 ± 0.25 and 5.47 ± 0.26.
For ANYVIVRAYQYTTLTSVQLLDCFG [SLC35F2], the protein stability index is 3.21 ± 0.26 (treatment: DMSO) and 3.03 ± 0.49 (treatment: MLN4924 1 uM, 8 h).
Taken in the same sequence, the figures for APDPELAAEMYQRGRAVLREAGFH [RSAD1] were 3.92 ± 0.32 and 4.07 ± 0.22.
The corresponding values for DEALAIAALELLPRELFPPLFMAA [PRAME] are 2.78 ± 0.21 and 2.61 ± 0.55.
Taken in the same sequence, the figures for PQLVSSAREGSSEPWLPLTDGRSP [PLEKHN1] were 4.83 ± 0.25 and 4.58 ± 0.085.
QVITLDQVLDEVIPIHGKGNFPTM [TENT5D] showed a protein stability index (treatment: DMSO) of 2.29 ± 0.24 and a protein stability index (treatment: MLN4924 1 uM, 8 h) of 2.32 ± 0.25.
As for EGMDRWIKKIEEHAPGVPKILVGN [RAB40A], the protein stability index reads like this: (treatment: DMSO) 3.41 ± 0.18; (treatment: MLN4924 1 uM, 8 h) 3.21 ± 0.31.
Taken in the same sequence, the figures for GFWEEERPFWEEEKTFWKEEKSFW [CCDC70] were 2.85 ± 0.35 and 3.274 ± 0.027.
In the case of VGLIRNLALCPANHAPLREQGAIP [CTNNB1], the protein stability index reads like this: (treatment: DMSO) 3.21 ± 0.24; (treatment: MLN4924 1 uM, 8 h) 3.32 ± 0.32.
The corresponding values for GGHSRERADEPQWSLYPSDSQVSE [CHGB] are 5.28 ± 0.27 and 5.24 ± 0.34.
Take HKVLELTAENERLQKKVEQLSREL [CEBPB]: the protein stability index reads like this: (treatment: DMSO) 5.76 ± 0.23; (treatment: MLN4924 1 uM, 8 h) 5.811 ± 0.011.
The corresponding values for EEVPEAYVDIHTGLSGSGVAFVCA [PYCR3] are 2.76 ± 0.53 and 2.66 ± 0.43.
As to VKWMVVFAIGVCTGLVGLFVDFFV [CLCN6], the protein stability index runs as follows: (treatment: DMSO) 2.16 ± 0.31; (treatment: MLN4924 1 uM, 8 h) 2.42 ± 0.46.
Taken in the same sequence, the figures for KVTGVEYHNAGTQTVPKRIPERLS [IQUB] were 4.22 ± 0.22 and 4.23 ± 0.32.
As to RTGLEKAAAGAVGLERRDWSPSPP [SPDEF], the protein stability index was 4.55 ± 0.2 (treatment: DMSO) and 4.49 ± 0.25 (treatment: MLN4924 1 uM, 8 h).
Turning to RGLGLGGRRLKSPQAPDPEEEENR [FANCE], the protein stability index was found to be 5.11 ± 0.23 (treatment: DMSO) and 5.58 ± 0.38 (treatment: MLN4924 1 uM, 8 h).
WDSFSAWLHCVCVVGFDLELGQAV [DENND6A]: the protein stability index stood at 3.04 ± 0.34 (treatment: DMSO) and 3.27 ± 0.68 (treatment: MLN4924 1 uM, 8 h).
Take LSPSRGVAQCLRDLVAMQWADAAG [ZSWIM9]: the protein stability index by setting is: (treatment: DMSO) 2.7 ± 0.17; (treatment: MLN4924 1 uM, 8 h) 2.77 ± 0.28.
With GRCELARVLHDFGLDGYRGYSLAD [SPACA3], the protein stability index reads like this: (treatment: DMSO) 2.62 ± 0.13; (treatment: MLN4924 1 uM, 8 h) 2.35 ± 0.32.
The corresponding values for VAPQDQCKLTCQAQALGYYYVLEP [ADAMTS4] are 2.58 ± 0.22 and 2.4 ± 0.04.
Taken in the same sequence, the figures for LRGLCANTVLRFLDLKGNNLRAAG [LRRC45] were 2.3 ± 0.24 and 2.24 ± 0.16.
SSFTWSVPSSGYGAVTASKHSNSP [SMTNL2]: the protein stability index was found to be 3.82 ± 0.26 (treatment: DMSO) and 3.87 ± 0.095 (treatment: MLN4924 1 uM, 8 h).
In the case of LLEATCPFGENAEFPADISSITEA [NFE2L1], the protein stability index came to 4.48 ± 0.28 (treatment: DMSO) and 4.65 ± 0.17 (treatment: MLN4924 1 uM, 8 h).
